{"source": "patent US20110110962A1", "about": "(INSERM INSTITUT NATIONAL DE LA SANT ET DE LA RECHERCHE M …, published 2011)", "key": {"TLR5 of mice (mouse)": {"target": "TLR5 of mice (mouse) (UniProt Q9JLF7)", "sequence (Q9JLF7 27-859)": "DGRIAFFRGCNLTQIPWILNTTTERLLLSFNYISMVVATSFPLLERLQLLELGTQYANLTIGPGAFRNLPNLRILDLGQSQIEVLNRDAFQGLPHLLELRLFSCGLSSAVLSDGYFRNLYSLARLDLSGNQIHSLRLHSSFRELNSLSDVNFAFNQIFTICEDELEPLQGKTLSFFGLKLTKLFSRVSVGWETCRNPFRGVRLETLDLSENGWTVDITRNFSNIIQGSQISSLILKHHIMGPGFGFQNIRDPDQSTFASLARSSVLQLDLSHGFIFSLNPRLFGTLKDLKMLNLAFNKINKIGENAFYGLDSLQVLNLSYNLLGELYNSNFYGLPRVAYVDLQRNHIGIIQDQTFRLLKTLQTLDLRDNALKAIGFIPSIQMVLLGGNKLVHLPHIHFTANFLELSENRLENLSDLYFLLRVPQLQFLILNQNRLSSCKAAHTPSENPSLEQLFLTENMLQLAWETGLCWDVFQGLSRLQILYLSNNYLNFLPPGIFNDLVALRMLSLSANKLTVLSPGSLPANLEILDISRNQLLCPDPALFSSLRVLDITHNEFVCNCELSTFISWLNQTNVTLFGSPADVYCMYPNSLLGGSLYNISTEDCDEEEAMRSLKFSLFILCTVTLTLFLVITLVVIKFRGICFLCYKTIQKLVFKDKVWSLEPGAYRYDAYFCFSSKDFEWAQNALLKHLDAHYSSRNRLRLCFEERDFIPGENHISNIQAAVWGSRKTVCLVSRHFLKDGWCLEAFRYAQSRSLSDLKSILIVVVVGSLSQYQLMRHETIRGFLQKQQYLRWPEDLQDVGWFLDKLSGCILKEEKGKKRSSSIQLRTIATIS", "experiment": "cell-based or functional assay"}, "TLR5 of mice": {"target": "TLR5 of mice (mouse, UniProt Q9JLF7 27-859)", "sequence (Q9JLF7 27-859)": "as above", "experiment": "cell-based or functional assay"}}, "data": [{"molecule": "FliCΔ174-400 flagellin (from UniProt P06175 2-493) (ligand)", "values": [{"measurement": "CCL20 mRNA pulmonary levels 2 h after i.n. instillation, against mock-treated animals", "setting": "TLR5 of mice (mouse)", "result": 30, "unit": "fold"}, {"measurement": "serum CCL20 after 10 µg i.v.", "setting": "TLR5 of mice (mouse)", "result": 0.85, "unit": "ng/mL"}, {"measurement": "systemic pro-inflammatory effects (serum CCL20 and CXCL2 after i.v. injection), against wild type FliC", "setting": "TLR5 of mice (mouse)", "result": 100, "unit": "fold"}]}, {"molecule": "FliCΔ191-352 (ligand) AQVINTNSLSLLTQNNLNKSQSALGTAIERLSSGLRINSAKDDAAGQAIANRFTANIKGLTQASRNANDGISIAQTTEGALNEINNNLQRVRELAVQSANSTNSQSDLDSIQAEITQRLNEIDRVSGQTQFNGVKVLAQDNTLTIQVGANDGETIDIDLKQINSQTLGLDTLNVQQKYKVSDTAATVTGYLELEDGTSKTALNKLGGADGKTEVVSIGGKTYAASKAEGHNFKAQPDLAEAAATTTENPLQKIDAALAQVDTLRSDLGAVQNRFNSAITNLGNTVNNLTSARSRIEDSDYATEVSNMSRAQILQQAGTSVLAQANQVPQSVLSLLR", "values": [{"measurement": "CCL20 mRNA pulmonary levels 2 h after i.n. instillation, against mock-treated animals", "setting": "TLR5 of mice", "result": "~30", "unit": "fold"}]}, {"molecule": "Salmonella enterica Serovar Typhimurium ATCC14028 flagellin FliC (ligand) AQVINTNSLSLLTQNNLNKSQSALGTAIERLSSGLRINSAKDDAAGQAIANRFTANIKGLTQASRNANDGISIAQTTEGALNEINNNLQRVRELAVQSANSTNSQSDLDSIQAEITQRLNEIDRVSGQTQFNGVKVLAQDNTLTIQVGANDGETIDIDLKQINSQTLGLDTLNVQQKYKVSDTAATVTGYADTTIALDNSTFKASATGLGGTDQKIDGDLKFDDTTGKYYAKVTVTGGTGKDGYYEVSVDKTNGEVTLAGGATSPLTGGLPATATEDVKNVQVANADLTEAKAALTAAGVTGTASVVKMSYTDNNGKTIDGGLAVKVGDDYYSATQNKDGSISINTTKYTADDGTSKTALNKLGGADGKTEVVSIGGKTYAASKAEGHNFKAQPDLAEAAATTTENPLQKIDAALAQVDTLRSDLGAVQNRFNSAITNLGNTVNNLTSARSRIEDSDYATEVSNMSRAQILQQAGTSVLAQANQVPQNVLSLLR", "values": [{"measurement": "CCL20 mRNA pulmonary levels 2 h after i.n. instillation, against mock-treated animals", "setting": "TLR5 of mice", "result": "~30", "unit": "fold"}]}, {"molecule": "FliCΔ204-292 (ligand) AQVINTNSLSLLTQNNLNKSQSALGTAIERLSSGLRINSAKDDAAGQAIANRFTANIKGLTQASRNANDGISIAQTTEGALNEINNNLQRVRELAVQSANSTNSQSDLDSIQAEITQRLNEIDRVSGQTQFNGVKVLAQDNTLTIQVGANDGETIDIDLKQINSQTLGLDTLNVQQKYKVSDTAATVTGYADTTIALDNSTFKAALTAAGVTGTASVVKMSYTDNNGKTIDGGLAVKVGDDYYSATQNKDGSISINTTKYTADDGTSKTALNKLGGADGKTEVVSIGGKTYAASKAEGHNFKAQPDLAEAAATTTENPLQKIDAALAQVDTLRSDLGAVQNRFNSAITNLGNTVNNLTSARSRIEDSDYATEVSNMSRAQILQQAGTSVLAQANQVPQNVLSLLR", "values": [{"measurement": "CCL20 mRNA pulmonary levels 2 h after i.n. instillation, against mock-treated animals", "setting": "TLR5 of mice", "result": "~30", "unit": "fold"}]}]}
